The values that follow are results of earlier work, collected in article PMC8999013.

The data set addresses integrin α7B cytoplasmic domain (Homo sapiens) (UniProt Q13683). As to the kind of experiment: intrinsic tryptophan fluorescence.

Sequence of integrin α7B cytoplasmic domain (Homo sapiens) (Q13683 1104-1181): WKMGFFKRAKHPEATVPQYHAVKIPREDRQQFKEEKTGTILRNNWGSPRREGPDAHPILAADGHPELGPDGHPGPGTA
Sequence of CIB2 (O75838 whole entry): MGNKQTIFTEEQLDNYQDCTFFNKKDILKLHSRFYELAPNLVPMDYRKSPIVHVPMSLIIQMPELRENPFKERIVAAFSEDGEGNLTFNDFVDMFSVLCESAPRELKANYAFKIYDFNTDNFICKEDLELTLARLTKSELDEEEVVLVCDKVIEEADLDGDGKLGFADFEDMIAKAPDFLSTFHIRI

As to CIB2 (from UniProt O75838), the dissociation constant (Kd) was 304 nM.
